# Laboratory results taken from US20250026820A1 (WUHAN YZY BIOPHARMA, published 2025).
# T1: TGFβ3 protein (GenScript Z03430) (human, UniProt P10600 301-412)
# T1 construct: also called human TGF-β3
# T1 sequence (looked up): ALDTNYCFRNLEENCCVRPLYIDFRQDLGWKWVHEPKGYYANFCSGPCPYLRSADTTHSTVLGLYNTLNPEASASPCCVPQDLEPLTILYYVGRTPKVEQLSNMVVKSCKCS
# T2: TGFβ2 protein (GenScript Z03429) (human, UniProt P61812 303-414)
# T2 construct: also called human TGF-β2
# T2 sequence (looked up): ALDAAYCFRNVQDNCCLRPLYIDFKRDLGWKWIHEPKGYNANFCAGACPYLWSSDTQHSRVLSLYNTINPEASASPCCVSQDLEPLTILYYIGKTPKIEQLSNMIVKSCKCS
# Columns and labels:
# [1] = biological target: T1, TGFβ3 protein (GenScript Z03430); experiment: ELISA; plate coated with human TGF-β3; antibody titrated; HRP anti-human Fc
# Experimental: (§1) A microplate was coated with 2 μL/well of the human TGF-β1/2/3 protein solution, respectively, at 4° C. overnight; the supernatant was discarded, 300 μL of a blocking solution (PBS containing 3% BSA) was added to each well, and the plate was blocked at 37° C. for 2 h; the antibodies were gradiently diluted, and the diluent was PBS containing 1% BSA. For example, the initial concentration of the antibody dilution was 500 nM, and diluted 10-fold to obtain 8 concentration gradients. The diluted antibody was added to the well of the microplate at 200 μL per well, the plate was left to stand and incubated at room temperature for 2 h, and the supernatant was discarded; the plate was washed for 3 times with 200 μL/well PBST (PBS containing 0.1% Tween 20); a diluted HRP-labeled anti-human Fc secondary antibody (SIGMA, A8667) was added, the secondary antibody was used after a 1:20000 dilution, the diluent was PBS containing 1% BSA, the volume was 100 μL/well, and the plate was incubated at room temperature for 1 h; the plate was washed for 5 times with 200 μL/well PBST; a TMB chromogenic solution (BD, 55214) was added at 100 μL/well for color development at 37° C. for 8 min. 2 M HCl stop solution was added at 100 μL/well. After the addition of the stop solution, the 450 nm values were read using a microplate reader within 30 min. Data were analyzed using GraphPad Prism 6.0 software and avidity fitting was performed to give EC50 values.
# [2] = biological target: T2, TGFβ2 protein (GenScript Z03429); experiment: ELISA; plate coated with human TGF-β2; antibody titrated; HRP anti-human Fc
# Experimental: as §1
# [3] = biological target: T3, TGFβ1 protein (GenScript Z03411) (human, UniProt P01137 279-390); experiment: ELISA; plate coated with human TGF-β1; antibody titrated; HRP anti-human Fc
# T3 construct: also called human TGF-β1; TGFβ1 antigen
# T3 sequence (P01137 279-390 limits assumed, one chain of several): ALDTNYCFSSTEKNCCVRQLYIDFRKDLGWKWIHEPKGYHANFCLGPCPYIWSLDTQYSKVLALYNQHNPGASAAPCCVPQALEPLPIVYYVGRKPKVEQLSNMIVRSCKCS
# Experimental: as §1
# [4] = biological target: T3, TGFβ1 protein (GenScript Z03411); experiment: cell-based or functional assay
Binder,EC50 [1],EC50 [2],EC50 [3],EC50 of TGF-β1 inhibitory activity (TF-1 cell proliferation) [4]
"B1C5 anti-TGFβ single domain heavy-chain antibody (variable region, linker peptide, human IgG1 heavy chain constant region) (Fc fusion, not shown: linker peptide (GGGGS)n, n=1, 2 or 3; human IgG1 heavy chain constant region, GenBank No. AK303185.1) heavy: EVQLVESGGGEVRPGGSLRLSCVVSGFTKDYGAIGWFRQAPGQEREGLGCIARKDGDTWSADSVKGRFTISRDNVRNTVYLQMNALKPEDRGVYYCAGDPSALYGCSDRSSEYQYWGQGTQVTVSS",0.546 nM,1.85 nM,0.442 nM,
"B3D2 anti-TGFβ single domain heavy-chain antibody (variable region, linker peptide, human IgG1 heavy chain constant region) (Fc fusion, not shown: linker peptide (GGGGS)n, n=1, 2 or 3; human IgG1 heavy chain constant region, GenBank No. AK303185.1) heavy: QLQLVESGGGLVQPGGSLTLSCLASGFTFSHYPMSWVRQAPGKGLEWVSVIGSDGAIKHYSDSVKGRFAISRDNAKNTLYLQMNSLKPEDTAVYYCAEGDSRYVRNRARGQGTQVTVSS",1.19 nM,27.6 nM,69.2 nM,
"B2C2 anti-TGFβ single domain heavy-chain antibody (variable region, linker peptide, human IgG1 heavy chain constant region) (Fc fusion, not shown: linker peptide (GGGGS)n, n=1, 2 or 3; human IgG1 heavy chain constant region, GenBank No. AK303185.1) heavy: QLQLVESGGGLVQPGGSLRLSCAGSGIAFSRVTMAWSRQAPGKQRELVALITDGNRSAYVDSVKGRFTISRDNTKKTMSLQMNDLKPEDTAVYYCVATDWVPTRRDYWGQGTQVTVSS",1.43 nM,1.42 nM,1.25 nM,
"B2H1 anti-TGFβ single domain heavy-chain antibody (variable region, linker peptide, human IgG1 heavy chain constant region) (Fc fusion, not shown: linker peptide (GGGGS)n, n=1, 2 or 3; human IgG1 heavy chain constant region, GenBank No. AK303185.1) heavy: QLQLVESGGGLVQPGESLRLSCAASGIIFSASTMAWFRQAPGKQRELVALITDGDRTNYADSVKGRFTISRDNAENTVYLQMTELKFEDTAVYYCNAFWLKAYWGQGTQVTVSS",1.71 nM,1.54 nM,130 nM,
"B2A2 anti-TGFβ single domain heavy-chain antibody (variable region, linker peptide, human IgG1 heavy chain constant region) (Fc fusion, not shown: linker peptide (GGGGS)n, n=1, 2 or 3; human IgG1 heavy chain constant region, GenBank No. AK303185.1) heavy: EVQVVESGGAAVQPGESLRLSCAASGSIFNTATMGWFRQAPGKQREMVAIITDGGRTNYADSVKGRFTISRDATKNTVYLQMNSLNPGDTAVYYCNALTIVPRSSIYWGQGTQVTVSS",1.3 nM,1.18 nM,48 nM,
"B1B7 anti-TGFβ single domain heavy-chain antibody (variable region, linker peptide, human IgG1 heavy chain constant region) (Fc fusion, not shown: linker peptide (GGGGS)n, n=1, 2 or 3; human IgG1 heavy chain constant region, GenBank No. AK303185.1) heavy: QVQLVESGGGLVQPGGSLTLSCTASGSMFSFYTMGWYRQATGKQRELVAGISLGGETTYAPSVKDRFTISRDNAKNTVYLQMNSLKPEDTALYNCNAYWGEDYWGQGTQVTVSS",162 nM,148 nM,7.01 nM,
"B2G8 anti-TGFβ single domain heavy-chain antibody (variable region, linker peptide, human IgG1 heavy chain constant region) (Fc fusion, not shown: linker peptide (GGGGS)n, n=1, 2 or 3; human IgG1 heavy chain constant region, GenBank No. AK303185.1) heavy: QVQLVESGGGLVQPGGSLRLSCAASGISFSYYDMGWFRQAPGKQRELVAIVTSGGRTNYADSVKGRFTISRETAKSTMYLQMNSLKSEDTGVYYCNAHWIVTTDYWGQGTQVTVAS",1.47 nM,1.73 nM,1.72 nM,
"B1F8 anti-TGFβ single domain heavy-chain antibody (variable region, linker peptide, human IgG1 heavy chain constant region) (Fc fusion, also called BIF8; not shown: linker peptide (GGGGS)n, n=1, 2 or 3; human IgG1 heavy chain constant region, GenBank No. AK303185.1) heavy: QVQLVESGGGLVQPGGSLRLSCAASGSIFGVFYMGWFRQAPGKQREMVAISTDDRTSYVDSVKGRFTISRDNAKNTLALQMNSLKPEDTAVYFCNLNQLGTDYWGPGTQVTVSS",1.29 nM,1.42 nM,0.785 nM,
"B3F3 anti-TGFβ single domain heavy-chain antibody (variable region, linker peptide, human IgG1 heavy chain constant region) (Fc fusion, not shown: linker peptide (GGGGS)n, n=1, 2 or 3; human IgG1 heavy chain constant region, GenBank No. AK303185.1) heavy: QVQLVESGGGLVQPGESLRLSCTASGSIFGVFYMGWFRQAPGKQRDMVAISTDDRTSYADSVKGRFTISRDNAKNTLALQMNSLKPEDTAVYFCNLNQLGTDYWGPGTQVTVSS",1.46 nM,1.62 nM,1.48 nM,
"B3D6 anti-TGFβ single domain heavy-chain antibody (variable region, linker peptide, human IgG1 heavy chain constant region) (Fc fusion, not shown: linker peptide (GGGGS)n, n=1, 2 or 3; human IgG1 heavy chain constant region, GenBank No. AK303185.1) heavy: EVQLVESGGGLVQAGGSLRLSCAASGRSFSSLAVGWFRQPPGKKREIVAAVNWSGTSTYYPDSVKGRFSISRDNTKNTVYLQMNSLKPEDTAVYYCAADPDLRWLKLWGYEYWGQGTQVTVSS",1.22 nM,0.939 nM,0.747 nM,
B1B8-Fc-B1B8 (Fc fusion) heavy: EVQVVESGGGLVQPGGSLTLSCVASGFAFSFTPMRWVRQAPGKGLEWVSSISIRGDTTDYADSVKGRFTISRDNAKNTLYLQMNSLKPEDTAVYYCSRGSSISTSTERTQGTQVTVSSGGGGSDKTHTCPPCPAPPVAGPSVFLFPPKPKDTLMISRTPEVTCVVVDVSHEAPEVQFNWYVDGVEVHNAKTKPREEQFNSTFRVVSVLTVVHQDWLNGKEYKCKVSNKGLPAPIEKTISKTKGQPREPQVYTLPPSRDELTKNQVSLTCLVKGFYPSDIAVEWESNGQPENNYKTTPPVLDSDGSFFLYSKLTVDKSRWQQGNVFSCSVMHEALHNHYTQKSLSLSPGGGGGSEVQVVESGGGLVQPGGSLTLSCVASGFAFSFTPMRWVRQAPGKGLEWVSSISIRGDTTDYADSVKGRFTISRDNAKNTLYLQMNSLKPEDTAVYYCSRGSSISTSTERTQGTQVTVSS,,,,0.813 nM
